Where no end group is shown, it is not given here. [ ]: non-standard residue; d: D form. pT = C[C@@H](OP(=O)(O)O)[C@H](N)C(=O)O
Key:
[1] = target: T1, His-SUMO-TTF2 1-100 (tandem zinc fingers) (Mus musculus, UniProt Q5NC05 1-100); assay: EMSA; 10 nM DNA; EMSA buffer (25 mM buffer component; full composition not in the material), 10 nM Cy5-DNA, 10 µl, room temperature, 10 min; Novex TBE 4-12% gel, 150 V, 40 min; conditions: protein: recombinant, tags: N-terminal 14His-SUMO (yeast Smt3)
T1 sequence: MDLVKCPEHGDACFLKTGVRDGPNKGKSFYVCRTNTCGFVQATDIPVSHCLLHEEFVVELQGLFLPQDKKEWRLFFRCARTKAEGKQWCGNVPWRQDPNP

[2] = target: the molecule itself; assay: mass photometry; Refeyn OneMP; TRAIP diluted to 6.4 ng/µl (~50 nM of TRAIP dimer); 25 mM Hepes-KOH pH 7.9, 150 mM NaCl, 10 mM MgOAc, 1 mM DTT
[3] = target: T2, HisSUMO-TTF2 1-100 (mouse, UniProt Q5NC05 1-100); assay: ITC; MicroCal PEAQ-ITC; 20 µM HisSUMO-TTF2 1-100 in the cell, 200 µM TRAIP peptide injected (19 x 2 µl); 50 mM Tris-HCl pH 7.5, 100 mM NaCl, 0.5 mM TCEP; conditions: both partners purified
T2 construct: mouse TTF2 residues 1-100 (tandem Zinc fingers); also called His-SUMO-tagged TTF2; recombinant form of TTF2 1-100; source: E. coli Rosetta (DE3) pLysS, purified (Ni-NTA, Superdex 200); not shown: 14His, N-terminal, kept; Smt3 (budding yeast SUMO), N-terminal, kept
T2 sequence (looked up): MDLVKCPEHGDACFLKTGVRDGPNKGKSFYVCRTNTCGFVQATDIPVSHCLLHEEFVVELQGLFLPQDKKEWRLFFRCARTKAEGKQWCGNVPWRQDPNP

[4] = target: T3, HisSUMO-TTF2 1-100 (mouse, UniProt Q5NC05 1-100); assay: ITC; phosphorylated T325
T3 chain: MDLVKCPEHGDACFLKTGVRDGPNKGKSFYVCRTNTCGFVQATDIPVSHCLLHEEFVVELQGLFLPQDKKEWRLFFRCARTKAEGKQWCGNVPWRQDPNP

B1: YX011 80-nt ssDNA (ssDNA)
DNA: CAGTGCCAAGCTTGCATGCCTGCAGGTCGACTCTAGAGGATCCCCGGGTACCGAGCTCGAATTCGTAATCATGGTCATAG
B1: no binding ([1]; label: 5'-Cy5).

B2: YX011/YX012 80-bp dsDNA (dsDNA)
DNA 1: CAGTGCCAAGCTTGCATGCCTGCAGGTCGACTCTAGAGGATCCCCGGGTACCGAGCTCGAATTCGTAATCATGGTCATAG
DNA 2: CTATGACCATGATTACGAATTCGAGCTCGGTACCCGGGGATCCTCTAGAGTCGACCTGCAGGCATGCAAGCTTGGCACTG
B2: no binding ([1]; label: 5'-Cy5 on strand 1, blunt).

B3: recombinant mouse TRAIP (enzyme, UniProt Q8VIG6-1 1-470, looked up)
chain: MPIRALCTICSDFFDHSRDVAAIHCGHTFHLQCLIQWFETAPSRTCPQCRIQVGKKTIINKLFFDLAQEEENVLDAEFLKNELDSVKAQLSQKDREKRDSQAIIDTLRDTLEERNATVESLQNALNKAEMLCSTLKKQMKFLEQRQDETKQAREEAHRLKCKMKTMEQIELLLQSQRSEVEEMIRDMGVGQSAVEQLAVYCVSLKKEYENLKEARKATGELADRLKKDLVSSRSKLKTLNTELDQAKLELRSAQKDLQSADQEITSLRKKLMILQGTLSLPPATNETVSRLVFESPAPVEMMNPRLHQPPFGDEIDLNTTFDVNTPPTQTSGSQHCLPKKLCLERARSPMQNVLKKVHKVSKPESQLSLGGQRCVGELDEELAGAFPLFIRNAVLGQKQPNRTTAESRCSTDVVRIGFDGLGGRTKFIQPRDTTIIRPVPVKSKAKSKQKVRIKTVSSASQPKLDTFLCQ
notes: Mw of the monomer 53.1 kDa; the tag was cut off with Ulp1; also called purified TRAIP; TRAIP ubiquitin ligase; source: E. coli Rosetta (DE3) pLysS, purified (Ni-NTA, HiTrapQ, HiTrap Heparin, Superose 6); not shown: 14His-Smt3 (budding yeast SUMO), N-terminal, cleaved
B3 was tested, and the “stoichiometry N” value [2] was 2.

B4: peptide corresponding to mouse TRAIP 313-329 with phosphorylated T325 (peptide)
peptide: FGDEIDLNTTFDVN[pT]PPTQ
modifications: not fully specified; printed as FGDEIDLNTTFDVN**T**PPTQ
notes: mouse TRAIP; the CDK consensus (T followed by P) points to the 15th letter; also called phosphorylated peptide; source: synthetic peptide (Peptide & Elephants)
In the case of B4, the binding result [3] is reported as “binds” and the Kd [4] is reported as 2300 nM.

From article doi:10.1101/2024.12.01.626218, “TTF2 drives mitotic replisome disassembly and MiDAS by coupling the TRAIP ubiquitin ligase to Polε” (bioRxiv, 2024)
